According to paper PMC10720262 (Cell Reports, 2023):

B1: CL-510427 (antibody, V domains shown)
VH: QVQLVESGGGVVQPGRSLRLSCAASGFTFSNYGMHWVRQAPGKGLEWVAVIWYDGSKEDYADSVKGRLTISRDNSKNTLYLQMNSLRAEDTAVYYCARDGDSRGWYAFDYWGQGTLVTVSS
VL: not shown
B2: CL-510458 (antibody, V domains shown)
VH: QVQLVESGGGVVQPGRSLRLSCAASGFTFNNYGMHWVRQAPGKGLEWVAVIWYDGSNKFHADSVKGRFTISRDNSKNTLYLQMNSLRAEDTALYYCARVYYYDSGSYLDYWGQGTLVTVSS
VL: DIQMTQSPSSVSASVGDRVTITCRASQGISRWLAWYQQKPGKAPKLLIYAASSLQSGVPSRFSGSGSGTDFTLTISSLQPEDFATYCCQQANNFPWTFGQGTKVEIK
B3: CL-510632 (antibody, V domains shown)
VH: QVQLVESGGGVVQPGRSLRLSCAASGFTFSNYGMHWVRQAPGKGLEWVAVIWYDGSNKFYADSVKGRFTISRDNSKNTLYLQTNSLRAEDTAVYYCARVYYYDSGNYLDYWGQGTLVAVSS
VL: DIQMTQSPSSVSASVGDRVTITCRASQGINNCLAWYQQKPGKAPKLLIYAASSLQSGVPSRFSGSGSGTDFTLTISNLQPEDFATYCCQQANSFPWTFGQGTKVEIK
B4: CL-509880 (antibody, V domains shown)
VH: QVQLVESGGGVVQPGRSLRLSCAASGFTFSNSGMHWVRQAPGKGLEWVAVIWYDGSNKYYADSVKGRFTVTRDNSKNTLYLQMNSLRAEDTAVYYCVRAYYGSGSYHFKYGMDVWGQGTTVTVSS
VL: not shown
B5: CL-510499 (antibody, V domains shown)
VH: QVQLVESGGGLVQPGRSLTLSCAASGFTFSNYGMHWVRQTPGKGLEWVALIRYDGSYKFYADSVKGRFTISRDNSKNTLYLQMNSLRAEDTAIYFCARDGDYSNSAGDFDYWGQGTLVTVSS
VL: EIVLTQSPGTLSLSPGERATLSCRASQSVSSTNLAWYQQKPGQAPRLLIYGVSSRATGIPDRFSGSGSGTDFTLTINRLEPEDFAVYYCQQHGRSFTFGPGTKVEIK
B6: CL-509940 (antibody, V domains shown)
VH: QVQLVESGGGVVQPGRSLRLSCAASGFTFSTYGMHWVRQAPGKGLEWVAVIWYDGSIKFYADSVKGRFTISRDDSKNTLYLQMNSLRAEDTAVYYCARDGGYSDSGRFGWFDPWGQGNLVTVSS
VL: EIVMTQSPVTLSVSPGERVTLSCRASQSVSSNLAWYQQKPGQAPRLLIYGASNRATGIPDRFSGSGSGTEFSLTVTSLQSEDFAVYYCQQYNQWRTFGQGTKVEIR
B7: CL-509494 (antibody, V domains shown)
VH: QVQLVESGGGVVQPGRSLRLSCAASGFTFSNFGMHWVRQSPGRGLEWVAIIWYDGSHKFYADSVKGRFTISRDNSKNTLYLQMNSLRAEDTAVYYCAKSEQRTNDHYYKYGMDVWGQGTTVTVST
VL: DIQMTQSPSTLSASVGDRVTITCRASQSISSWLAWYQQKPGKAPTLLIYKASSLESGVPSRFSGSGSGTEFTLTISSLQPDDFATYYCQQYTNYWTFGQGTKVEIK
B8: CL-510418 (antibody, V domains shown)
VH: QVQLVESGGGVVQPGQSLRLSCEASGFTFSNYGMHWVRQAPVKGLEWVAIIWFDGSYKYYADSVKGRFTVSRDNSKNTLYLQMDSLRAEDTAVYYCARARKGQRSDYYGSETSYTFDNWGQGTLVTVSS
VL: DIQMTQSPSTLSASVGDRVTITCRASQSINSWLAWYQQKPGKAPKFLIYKASILESGIPSRFSGSGSGTEFTLTISSLQPDDFATYYCQQYNSYWTFGQGTKVEIK
B9: CL-510487 (antibody, V domains shown)
VH: QVQLEESGGGVVQPGRSLRLSCTATGFTFSNYGMHWVRQAPGRGLEWVGVIWYDGSNKFYVDSVKGRFTISRDNSKNTLYLQMNSLRAEDTAVYYCARDGGYYGSGSYWWFDSWGQGTLVTVSS
VL: DIQMTQSPSTLSASVGDRVTITCRASQSISSWLAWYQQKPGKAPKLLIYKASSLERGVPSRFSGSGSGTEFTLTISSLQPDDFATYYCQQYNRYCSFGQGTKLEIK
B10: CL-510373 (antibody, V domains shown)
VH: QVQLVESGGGVVQPGRSLKLSCAASGFTFSSYGMHWVRQAPGRGLEWVSIIWYDGSNKFYSDSVQGRFTISRDDSKNTLYLQMNSLRAEDTAMYYCAMVANYTISSGAFDIWGHGTMVTVSS
VL: DIQMTQSPSTLSASVGDRVTITCRASQSISNWLAWYQQKSGKAPKLLIYKASSLESGVPSRFSGSGSGTEFTLTISSLQPDDFATYFCQQYKTYWTFGQGTKVEIK
B11: CL-510416 (antibody, V domains shown)
VH: QVQLVESGGGVVQPGRSLRLSCEASGFTFSNYGMHWVRQGPGKGLEWVALMWYDGSNKYYSDSVKGRFTISRDNSKSTLYLQMNSLRAEDTAVYYCARPITGNTHSKYTMDVWGQGTTVTVSS
VL: DIQMTQSPSTLSASVGDRVTITCRASQSISSWLAWYQQKPGKAPKLLIYKASTLESGVPSRFSGSGSGTEFTLTISSLQPDDFATYFCQQYNSYWTFGQGTKVEIK
B12: CL-510020 (antibody, V domains shown)
VH: QVQLVESGGGVVQPGRSLRLSCAASGFTFSSFGMYWVRQAPGKGLEWVALIWYDGSNQYYADSVKGRFTISRDNSKNTLYLQMNSLRAEDTAVYYCARAGYFYGSGSPLDYWGQGTLVTVPS
VL: DIQMTQSPSTLSASVGDGVTITCRASQSISSWLAWYQQKPGKAPKLLIYMASSLESGVPSRFSGSGSGTEFTLTISSLQPDDFATYYCQQYYNYWTFGQGTKVEIK
B13: CL-510453 (antibody, V domains shown)
VH: QVQLVESGGGVVQPGRSLRLSCAASGFTFSSYGMHWVRQAPDKGLEWVAIIWYDGSKKYYADSVKGRFTVSRDNSKNTLYLQMNSLRAEDTAVFYCARSFDYESGGFYSFDYWGQGTLVSVSS
VL: DIQMTQSPSTLSASVGDRVTITCRASQSISSWLAWYQQKPGKAPKLLIYRASSLASGVPSRFSGSGSGTEFTLTISSLQPDDFATYYCQQYNSYWTFGQGTKVEFK
B14: CL-510092 (antibody, V domains shown)
VH: QVQLVESGGGVVQPGTSLRLSCAASGFTFSNFGMYWVRQAPGKGLEWVALIWYDGSNKFYEDSVKGRFTISRDNSKNTLYLQMNSLRAEDTAVYYCAKDGGYSGPGKYGFFRHWGQGSLVTVSS
VL: DIQLTQSPSTLSASVGDRVTITCRASQSISNWLAWYQQKPGKAPKLLIYKASSLESGVPSRFSGNGSGTEFTLTISSLQPDDFATYYCHQYNFYWTFGQGTKVEIK
B15: CL-510596 (antibody, V domains shown)
VH: QVQLEESGGGVVQPGRSLRLSCTATGFTFSNYGMHWVRQAPGKGLEWVAVIWYDGSNKYYVDSVKGRFTISRDNSKNTLYLQMNSLRAEDTAVYYCARDGGYYGSGSYWWFDSWGQGTLVTVSS
VL: not shown
B16: CL-509930 (antibody, V domains shown)
VH: QVQLVESGGGVVQPGRSLRLSCAASGFTFSSYGMHWVRQAPGKGLEWVAIIWHDGSNKYYADSVKGRFTISRDNSKNTLYLQMNSLRAEDTAVYYCARDYSSFYFDYWGQGTLVTVSS
VL: not shown
B17: CL-509326 (antibody, V domains shown)
VH: QVYLVESGEGVVQPGRSLRLSCAASGFTFSNYGMHWVRQAPGKGLEWVAVIWYNGNNKFYADSVKGRFTISRDNSKNTLFLQMNSLRAEDTAVYFCARSGYSRSSYFDYWGQGTLVTVSS
VL: QSVLTQPPSVSGAPGQRVTISCTGSSSNIGAVYDVHWYQQLPGTAPKLLIYGNTNRPSGVPDRFSGSQSGTSASLAITGLQAEDEADYYCQSYDSSLSGSVFGGGTKLTVL
B18: CL-510484 (antibody, V domains shown)
VH: QVQLVESGGGVVQPGRSLRLSCAASGFTFSNYGMNWVRQAPGKGLEWMAVIWYDGSNKYYGDSVKGRFTISRDNSKNTLYLQMISLRAEDTAVYFCAKSGEFYGSGSHFDYWGQGTLVTVSS
VL: not shown
B19: CL-510514 (antibody, V domains shown)
VH: QVQLVESGGGVVQPGRSLRLSCTTSGFTFSNFGMHWVRQAPGKGLEWVALIWYDGSNKYYADSVKGRFTISRDNSKNTLYLQMNGLRAEDTAVYYCARDGGYYYGSGGAFDIWGQGTMVTVSS
VL: not shown
B20: CL-509370 (antibody, V domains shown)
VH: QVQLVESGGGVVQPGRSLRLSCAASGFTFSSYGMHWVRQAPGKGLEWVAVIWYDGSNKFYADSVKGHFTISRDNSKNTLYLQMNSLRAEDTAVYYCARDGRDLRGTGPYFDPWGQGTLVTVSS
VL: EIVMTQSPATLSVSPGERAILSCRASQSVSSNLAWYQQKPGQAPRLLIYGASIRATGIPARFRGSGSGTEFTLTISILQSEDFAVYYCQQYNNWITFGQGTRLEIK
B21: CL-510433 (antibody, V domains shown)
VH: QVQLVESGGGVVQPGRSLRLSCVASGFTFSSYGMHWVRQAPGKGLEWVAVIWYDGSNKYYADSVKGRFTVSRDNSKNTLYLQMNSLRAEDTAVYYCARVYYYGSGSYSPYYYALDVWGHGTTVTVSS
VL: EIVMTQSPATLSVSPGERATLSCRASQSISSNLAWYQQKPGQAPRLLIYGASIRATGIPARFSGSGSGTEFTLSISILQSEDFAIYYCQQYNNWWTFGQGTKVEIK
B22: CL-510469 (antibody, V domains shown)
VH: QVQLVESGGGVVQPGRSLRLSCAASGFTFSSYGMHWVRQAPGKGLEWVAVIWYDGSNQFYTDSVKGRFTISRDNSKNTLYLHMNSLRVEDTAIYYCARDGDYSSSAGDFDYWGQGTLVTVSS
VL: not shown
B23: CL-509993 (antibody, V domains shown)
VH: QVQLVESGGGVVQPGRSLRLSCVASGFTFSNNGMHWVRQAPGKGLEWVAIIWYDGSNKYYADSVKGRFTISRDNSNNTLYLQMNSLRAEDTAVYYCARDRMFGSGTWNYFDPWGQGTLVTVSS
VL: EIVLTQSPATLSLSPGERATLSCRASQSVTTYLAWYQQKPGQAPRLLIYDASNRATGIPARFSGSGSGTDFTLTISSLEPEDFAVYYCQQRSNWWTFGQGTKVEIK
B24: CL-510082 (antibody, V domains shown)
VH: QVQLVESGGGVVQPGKSLRLSCVASGFTFSNNGMHWIRQAPGKGLEWVAIIWYDGSNKFYADSVKGRFTISRDNSHNTLYLQMNSLRAEDTAVYYCARDRMFGSGTWNYFDPWGQGTLVTVSS
VL: EIVLTQSPATLSLSPGERATLSCRASQSVSTYLAWYQQKPGQAPRLLIYDASNRATGIPARFSGSGSGTDFTLTISSLEPEDFAVYYCQQRSYWWTFGQGTKVEIK

These binders were tested against recombinant full-length PfCSP (Plasmodium falciparum circumsporozoite protein, strain NF54) (Plasmodium falciparum NF54, UniProt P19597).
Chain of recombinant full-length PfCSP (Plasmodium falciparum circumsporozoite protein, strain NF54) (P19597 20-375): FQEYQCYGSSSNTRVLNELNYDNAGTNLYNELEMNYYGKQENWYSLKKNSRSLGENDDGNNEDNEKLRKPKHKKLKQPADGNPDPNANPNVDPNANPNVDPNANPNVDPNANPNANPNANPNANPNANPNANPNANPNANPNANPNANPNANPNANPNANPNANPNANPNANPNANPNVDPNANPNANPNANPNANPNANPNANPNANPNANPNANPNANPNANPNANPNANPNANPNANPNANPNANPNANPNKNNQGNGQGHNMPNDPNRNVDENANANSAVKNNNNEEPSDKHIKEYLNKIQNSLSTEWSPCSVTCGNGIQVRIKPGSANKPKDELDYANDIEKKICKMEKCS

Binding result, binds:
B1, B2, B3, B4, B5, B6, B7, B8, B9, B10, B11, B12, B13, B14, B15, B16, B17, B18, B19, B20, B21, B22, B23, B24
